Laboratory results published in US20150344570A1 (published 2015).
Where a chain is given by its changes, count along the chain named. In names and notes the source's numbering stands. Values belong to the binder of their own block, whether it stands above or below them.

Key:
FcγRIIIa [1] = target: T1, FcγRIIIa (human, UniProt P08637 17-208); assay: ratio of SPR KDs: KD of GpH7-A5/GpH7-B3/GpL16-k0 divided by KD of this antibody
T1 construct: extracellular domain; also called FcgRIIIa; CD16A; not shown: His tag attached to the C terminus
T1 sequence (P08637 17-208): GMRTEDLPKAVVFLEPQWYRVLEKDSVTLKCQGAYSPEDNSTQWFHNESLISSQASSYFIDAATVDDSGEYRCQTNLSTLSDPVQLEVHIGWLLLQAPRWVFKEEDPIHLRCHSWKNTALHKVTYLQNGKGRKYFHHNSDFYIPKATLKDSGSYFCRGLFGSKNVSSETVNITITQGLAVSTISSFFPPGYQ
Description: (§1) The prepared antibodies were compared for the FcγRIIIa-binding activity using, as an indicator, KD for FcγRIIIa that was determined according to the method described in Reference Example 2.
(§2) Analysis of interaction between objective antibody and the FcγR was carried out using Biacore T100 (GE Healthcare). HBS-EP+ (GE Healthcare) was used as the running buffer, and the measurement temperature was set to 25° C. Chips produced by immobilizing the antigen peptide by the amine coupling method to a Series S Sencor Chip CM5 (GE Healthcare), or alternatively, chips produced by allowing preliminarily biotinylated antigen peptides to interact with and immobilize onto a Series S Sensor Chip SA (certified) (GE Healthcare) were used. Antibodies of interest were captured onto an antigen peptide-immobilized chip, and allowed to interact to each FcγR diluted with running buffer. To regenerate and repeatedly use the chip, the antibodies captured on the chip were washed off by reacting 10 mM glycine-HCl, pH 1.5.
(§3) Specifically, to calculate association rate constant ka (L/mol/s) and dissociation rate constant kd (1/s), sensorgrams obtained by measurement were processed for global fitting by Biacore Evaluation Software using 1:1 Langmuir binding model and dissociation constant KD (mol/1) was calculated from the resulting values.

FcγRIIIa [2] = target: T1, FcγRIIIa; assay: ratio of SPR KDs: KD of GpH7-A5/GpH7-B78/GpL16-k0 divided by KD of this antibody
Description: To assess this hypothesis, GpH7-A53 (SEQ ID NO: 42) resulting from the introduction of S239D into GpH7-A5 was constructed, and, this is combined with GpH7-B78 introduced with S239D, A330L, and I332E, and the expression and preparation were performed according to the method described in Reference Example 1. The effect of the combination of S239D and S239D, A330L, and I332E was assessed by comparing the FcγRIIIa binding between the heterodimerized and homodimerized antibodies with S239D, A330L, and I332E according to the method described in Reference Example 2 (Table 14).
as §2, §3

FcγRIIIa [3] = target: T1, FcγRIIIa; assay: ratio of SPR KDs: KD of GpH7-G1d/GpL16-k0 divided by KD of this antibody
Description: as §1, §2, §3

FcγRIIIa [4] = target: T1, FcγRIIIa; assay: ratio of SPR KDs: KD of GpH7-TA22/GpH7-B78/GpL16-k0 divided by KD of this antibody
Description: Then, GpH7-TA54 (SEQ ID NO: 46) resulting from the introduction of Y296W into GpH7-TA22 was constructed, and expressed and prepared in combination with GpH7-B78 according to the method described in Reference Example 1. Furthermore, GpH7-TA58 (SEQ ID NO: 45) resulting from the introduction of Y296W into GpH7-B78 was constructed, and expressed and prepared in combination with GpH7-TA22 according to the method described in Reference Example 1. To assess the effect of combination with Y296W, the prepared antibodies were compared for the FcγRIIIa-binding activity according to the method described in Reference Example 2 (Table 17).
as §2

FcγRIIIa [5] = target: T1, FcγRIIIa; assay: ratio of SPR KDs: KD of GpH7-TA7/GpH7-B78/GpL16-k0 divided by KD of this antibody
Description: First, it was considered which H chain should be introduced with Y296W. GpH7-TA52 (SEQ ID NO: 44) resulting from the introduction of the mutation Y296W into GpH7-TA7 was constructed, and expressed and prepared in combination with GpH7-B78 according to the method described in Reference Example 1. Furthermore, GpH7-TA58 (SEQ ID NO: 45) resulting from the introduction of Y296W into GpH7-B78 was constructed, and expressed and prepared in combination with GpH7-TA22 according to the method described in Reference Example 1. To assess the effects of combinations with Y296W, the prepared antibodies were compared for the FcγRIIIa-binding activity according to the method described in Reference Example 2 (Table 16).
as §2

[6] = target: T2, FcγRIIIa F extracellular domain with C-terminal His tag (human, UniProt P08637 17-208); assay: SPR (Biacore), antibody captured on chip, soluble FcγR as analyte, 1:1 Langmuir fit
T2 construct: extracellular domain; Soluble receptor, F158 allotype; also called FcgRIIIa F; FcgRIIIaF; not shown: His tag at the C terminus
T2 sequence (P08637 17-208): as above
Description: (§4) Specifically, H240-Hl134 (SEQ ID NO: 88) resulting from introduction of L234Y/L235Y/G236W/H268D/S298A into H240-Hl033 and H240-Kn132 (SEQ ID NO: 89) resulting from introduction of K326D/A330M/K334E into H240-Kn033 were constructed according to the method described in Reference Example 1.
(§5) Analysis of interaction between objective antibody and the FcγR was carried out using Biacore T100 (GE Healthcare), Biacore T200, Biacore A100, and Biacore 4000. HBS-EP+ (GE Healthcare) was used as the running buffer, and the measurement temperature was set to 25° C. Chips produced by immobilizing the antigen peptide by the amine coupling method to a Series S sensor Chip CM5 (GE Healthcare), chips produced by allowing preliminarily biotinylated antigen peptides to interact with and immobilize onto a Series S Sensor Chip SA (certified) (GE Healthcare), chips produced by immobilizing Protein L (ACTIGEN, BioVision) to Series S Sencor Chip CM5 (GE Healthcare), or chips produced by immobilizing Protein A/G (Thermo Scientific) to Series S Sencor Chip CM5 (GE Healthcare) were used. Antibodies of interest were captured onto these chips, and allowed to interact to each FcγR diluted with running buffer. To regenerate and repeatedly use the chip, the antibodies captured onto the chip were washed off by reacting 10 mM glycine-HCl, pH 1.5.

[7] = target: T3, FcγRIIIa V extracellular domain with C-terminal His tag (human, UniProt P08637 17-208); assay: as above
T3 construct: extracellular domain; Soluble receptor, V158 allotype; also called FcgRIIIa V; FcgRIIIaV; not shown: His tag at the C terminus
T3 sequence (P08637 17-208 F176V): as the sequence (P08637 17-208) above, with F160V counted along it
Description: as §4, §5

KD ratio 2 (FcγRIIIa [1]): 30 fold
KD ratio (FcγRIIIa [2]): 1 fold
KD ratio 1 (FcγRIIIa [3]): 23 fold
B1: GpH7-A5/GpH7-B78/GpL16-k0 (antibody, human IgG1, kappa)
heavy 1: not shown
heavy 2: QVQLVQSGAEVKKPGASVTVSCKASGYTFTDYEMHWIRQPPGEGLEWIGAIDPKTGDTAYSESFQDRVTLTADKSTSTAYMELSSLTSEDTAVYYCTRFYSYTYWGQGTLVTVSSASTKGPSVFPLAPSSKSTSGGTAALGCLVKDYFPEPVTVSWNSGALTSGVHTFPAVLQSSGLYSLSSVVTVPSSSLGTQTYICNVNHKPSNTKVDKKVEPKSCDKTHTCPPCPAPELLGGPDVFLFPPKPKDTLMISRTPEVTCVVVDVSHEDPEVKFNWYVDGVEVHNAKTKPREEQYNSTYRVVSVLTVLHQDWLNGKEYKCKVSNKALPLPEEKTISKAKGQPREPQVYTLPPSRDELTKNQVSLTCLVKGFYPSDIAVEWESNGQPENNYKTTPPVLDSDGSFFLYSKLTVDKSRWQQGNVFSCSVMHEALHNHYTQESLSLSP
light: DIVMTQSPLSLPVTPGEPASISCQASESLVHSNRNTYLHWYLQKPGQSPQLLIYKVSNRFSGVPDRFSGSGSGTDFTLKISRVEAEDVGVYYCSQNTHVPPTFGQGTKVEIERTVAAPSVFIFPPSDEQLKSGTASVVCLLNNFYPREAKVQWKVDNALQSGNSQESVTEQDSKDSTYSLSSTLTLSKADYEKHKVYACEVTHQGLSSPVTKSFNRGEC
notes: Anti-glypican-3 IgG1 heterodimer; S239D/A330L/I332E in H2 only

KD ratio (FcγRIIIa [4]): 1 fold
B2: GpH7-TA22/GpH7-TA58/GpL16-k0 (antibody, human IgG1, kappa)
heavy 1: B1 heavy 2 with L232Y, G234W, S296A, L328A, E330I, D354K, H433R, E437K
heavy 2: B1 heavy 2 with Y294W
light: B1 light
notes: Anti-glypican-3 IgG1 heterodimer; L234Y/G236W/S239D/S298A in H1, S239D/A330L/I332E/Y296W in H2

KD ratio (FcγRIIIa [5]): 1.2 fold
B3: GpH7-TA7/GpH7-TA58/GpL16-k0 (antibody, human IgG1, kappa)
heavy 1: B1 heavy 2 with L232Y, G234W, D237S, S296A, L328A, E330I, D354K, H433R, E437K
heavy 2: B1 heavy 2 with Y294W
light: B1 light
notes: Anti-glypican-3 IgG1 heterodimer; L234Y/G236W/S298A in H1, S239D/A330L/I332E/Y296W in H2

KD ratio (FcγRIIIa [4]): 1.3 fold
B4: GpH7-TA54/GpH7-B78/GpL16-k0 (antibody, human IgG1, kappa)
heavy 1: B1 heavy 2 with L232Y, G234W, Y294W, S296A, L328A, E330I, D354K, H433R, E437K
heavy 2: B1 heavy 2
light: B1 light
notes: Anti-glypican-3 IgG1 heterodimer; L234Y/G236W/S239D/S298A/Y296W in H1, S239D/A330L/I332E in H2

KD ratio (FcγRIIIa [5]): 1.8 fold
B5: GpH7-TA52/GpH7-B78/GpL16-k0 (antibody, human IgG1, kappa)
heavy 1: B1 heavy 2 with L232Y, G234W, D237S, Y294W, S296A, L328A, E330I, D354K, H433R, E437K
heavy 2: B1 heavy 2
light: B1 light
notes: Anti-glypican-3 IgG1 heterodimer; L234Y/G236W/S298A/Y296W in H1, S239D/A330L/I332E in H2

KD ratio 2 (FcγRIIIa [1]): 263 fold
KD ratio (FcγRIIIa [2]): 8.7 fold
KD ratio 1 (FcγRIIIa [3]): 199 fold
B6: GpH7-A57/GpH7-B78/GpL16-k0 (antibody, human IgG1, kappa)
heavy 1: B1 heavy 2 with D354K, H433R, E437K
heavy 2: B1 heavy 2
light: B1 light
notes: Anti-glypican-3 IgG1; The two chains differ only in D356K/H435R and K439E

KD ratio (FcγRIIIa [2]): 4.9 fold
B7: GpH7-A53/GpH7-B78/GpL16-k0 (antibody, human IgG1, kappa)
heavy 1: B1 heavy 2 with L328A, E330I, D354K, H433R, E437K
heavy 2: B1 heavy 2
light: B1 light
notes: Anti-glypican-3 IgG1 heterodimer; S239D in H1, S239D/A330L/I332E in H2

Kd [6]: 660 nM
Kd [7]: 86 nM
B8: H240-Kn061/H240-Hl134/L73-k0 (antibody, human IgG1, kappa)
heavy 1: QDQLVQSGAEVKKPGASVKVSCKASGFNIKDTYIQWVRQAPGQGLEWMGRIDPLRKQTKYREKFEGRVTITADTSTNTAYMELSSLRSEDTAVYYCVRSGREFDYWGQGTLVTVSSASTKGPSVFPLAPSSKSTSGGTAALGCLVKDYFPEPVTVSWNSGALTSGVHTFPAVLQSSGLYSLSSVVTVPSSSLGTQTYICNVNHKPSNTKVDKKVEPKSCDKTHTCPPCPAPEYYWGPSVFLFPPKPKDTLMISRTPEVTCVVVDVSDEDPEVKFNWYVDGVEVHNAKTKPREEQYNATYRVVSVLTVLHQDWLNGKEYKCKVSNKALPAPIEKTISKAKGQPREPQVCTLPPSRDELTKNQVSLWCLVKGFYPSDIAVEWESNGQPENNYKTTPPVLDSDGSFFLYSKLTVDKSRWQQGNVFSCSVMHEALHNHYTQKSLSLSP
heavy 2: B8 heavy 1 with C348Y, D355C, W365S, L367A, Y406V
light: DIQMTQSPSSLSASVGDRVTITCRASQDIHKYIAWYQQKPGQAPRLLIQYTSTLQPGVPSRFSGSGSGTDYTFTISSLQPEDIATYYCLQYEQLRTFGGGTKVEIKRTVAAPSVFIFPPSDEQLKSGTASVVCLLNNFYPREAKVQWKVDNALQSGNSQESVTEQDSKDSTYSLSSTLTLSKADYEKHKVYACEVTHQGLSSPVTKSFNRGEC
notes: Anti-epiregulin IgG1, knobs-into-holes; called homodimerized as both H chains carry L234Y/L235Y/G236W/H268D/S298A

Kd [6]: 77 nM
Kd [7]: 16 nM
B9: H240-Kn132/H240-Hl071/L73-k0 (antibody, human IgG1, kappa)
heavy 1: B8 heavy 1 with Y233L, Y234L, W235G, D267H, A297S, K325D, A329M, K333E
heavy 2: QDQLVQSGAEVKKPGASVKVSCKASGFNIKDTYIQWVRQAPGQGLEWMGRIDPLRKQTKYREKFEGRVTITADTSTNTAYMELSSLRSEDTAVYYCVRSGREFDYWGQGTLVTVSSASTKGPSVFPLAPSSKSTSGGTAALGCLVKDYFPEPVTVSWNSGALTSGVHTFPAVLQSSGLYSLSSVVTVPSSSLGTQTYICNVNHKPSNTKVDKKVEPKSCDKTHTCPPCPAPELLGGPSVFLFPPKPKDTLMISRTPEVTCVVVDVSHEDPEVKFNWYVDGVEVHNAKTKPREEQYNSTYRVVSVLTVLHQDWLNGKEYKCKVSNDALPMPIEETISKAKGQPREPQVYTLPPSRCELTKNQVSLSCAVKGFYPSDIAVEWESNGQPENNYKTTPPVLDSDGSFFLVSKLTVDKSRWQQGNVFSCSVMHEALHNHYTQKSLSLSP
light: B8 light
notes: Anti-epiregulin IgG1, knobs-into-holes; called homodimerized as both H chains carry K326D/A330M/K334E
